Measured values from patent publication US20220411536A1 (NUMAB THERAPEUTICS, published 2022).
Changes are numbered by the printed parent chain. Names may count otherwise.

T1: recombinant human IL-23R (custom-made by Trenzyme) (human, UniProt Q5VWK5 24-355)
T1 sequence (looked up): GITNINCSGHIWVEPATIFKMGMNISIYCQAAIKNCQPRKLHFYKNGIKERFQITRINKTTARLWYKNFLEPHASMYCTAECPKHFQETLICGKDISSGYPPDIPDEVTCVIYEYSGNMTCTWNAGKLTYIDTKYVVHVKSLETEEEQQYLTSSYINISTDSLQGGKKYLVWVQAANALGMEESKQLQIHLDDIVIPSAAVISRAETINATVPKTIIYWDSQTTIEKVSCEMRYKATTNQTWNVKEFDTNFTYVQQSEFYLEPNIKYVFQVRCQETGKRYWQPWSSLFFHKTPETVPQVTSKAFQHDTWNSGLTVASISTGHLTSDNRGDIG

B1: PRO1076 (scFv, V domains shown)
VH: QVQLQESGPGLVKPSETLSLTCKVSGFSFSSGYDMCWIRQPPGKGLEWIGCVVAGSVDITYYASWAKGRVTISVDSSKNQFSLKLSSVTAADTAVYYCARKDAYSDAFNLWGQGTLVTVSS
VL: DIQMTQSPSSLSASVGDRVTITCQASQSINDYLAWYQQKPGKAPKLLIYKASTLASGVPSRFSGSGSGTDFTLTISSLQPEDFATYYCQQAYIITDIDNVFGTGTKVTVLG
notes: also called 33-03-G02 VL-G109A
B2: PRO1544 (multispecific antibody)
chain 1: DIQMTQSPSSLSASVGDRVTITCQASQSINDYLAWYQQKPGKAPKLLIYKASTLASGVPSRFSGSGSGTDFTLTISSLQPEDFATYYCQAAYIITDIDNVFGTGTKVTVLGGGGGSGGGGSGGGGSGGGGSQVQLQESGPGLVKPSETLSLTCKVSGFSFSSGYDMCWIRQPPGKGLEWIGCVVAGSVDITYYASWAKGRVTISVDSSKNQFSLKLSSVTAADTAVYYCARKDAYSDAFNLWGQGTLVTVSSGGGGSGGGGSDVVMTQSPSSLSASVGDRVTITCQASQIISSRSAWYQQKPGQPPKLLIYQASKLASGVPSRFSGSGSGTDFTLTISSLQPEDFATYYCQCTYIDSNFGAFGCGTKLTVLGGGSGGSDIQMTQSPSSLSASVGDRVTITCQSSQSVFSNNYLAWFQQKPGQSPKRLIYSASTLASGVPSRFSGSGSGTDFTLTISSLQPEDFATYYCLGSYACSSADCYVFGTGTKVTVLG
chain 2: not shown
B3: PRO1545 (multispecific antibody)
chain 1: B2 chain 1
chain 2: DIQMTQSPSSLSASVGDRVTITCQASENIYSFLAWYQQKPGKAPKLLIYSASKLAAGVPSRFSGSGSGTDFTLTISSLQPEDFATYYCQQTNRYSNPDIYNVFGTGTKVTVLGGGGGSGGGGSGGGGSGGGGSEVQLVESGGGLVQPGGSLRLSCAASGIDFNSNYYMCWVRQAPGKGLEWIGCIYVGSHVNTYYANWAKGRFTISRDNSKNTVYLQMNSLRAEDTAVYYCATSGSSVLYFKFWGQGTLVTVSSGGGGSGGGGSEVQLVESGGGLVQPGGSLRLSCAASGFSLSSYDMSWVRQAPGKGLAWIGASYASGPTYYASWAKGRFTISRDNSKNTVYLQMNSLRAEDTATYFCARGGWTGTSHSNIWGQGTLVTVSSGGGSGGGSEVQLVESGGGLVQPGGSLRLSCAASGFSFSSSYWICWVRQAPGKCLEWVGCVFTGDGTTYYASWAKGRFTISRDNSKNTVYLQMNSLRAEDTATYFCARPVSVYYYGMDLWGQGTLVTVSS
B4: PRO1852 (multispecific antibody)
chain: DIQMTQSPSSLSASVGDRVTITCQASQSINDYLAWYQQKPGKAPKLLIYKASTLASGVPSRFSGSGSGTDFTLTISSLQPEDFATYYCQAAYIITDIDNVFGTGTKVTVLGGGGGSEVQLVESGGGLVQPGGSLRLSCAASGFTFTDYTMDWVRQAPGKCLEWVADVNPNSGGSIYNQRFKGRFTLSVDRSKNTLYLQMNSLRAEDTAVYYCARNLGPSFYFDYWGQGTLVTVSSGGGGSGGGGSGGGGSGGGGSDIQMTQSPSSLSASVGDRVTITCKASQDVSIGVAWYQQKPGKAPKLLIYSASYRYTGVPSRFSGSGSGTDFTLTISSLQPEDFATYYCQQYYIYPYTFGCGTKVTVLGGGGGSQVQLQESGPGLVKPSETLSLTCKVSGFSFSSGYDMCWIRQPPGKGLEWIGCVVAGSVDITYYASWAKGRVTISVDSSKNQFSLKLSSVTAADTAVYYCARKDAYSDAFNLWGQGTLVTVSSGGGGSGGGGSIQMTQSPSSLSASVGDRVTITCQSSESVYSNNQLSWYQQKPGQPPKLLIYDASDLASGVPSRFSGSGSGTDFTLTISSLQPEDFATYYCAGGFSSSSDTAFGGGTKLTVLGGGGGSGGGGSGGGGSGGGGSEVQLVESGGGLVQPGGSLRLSCAASGFSLSSNAMGWVRQAPGKGLEYIGIISVGGFTYYASWAKGRFTISRDNSKNTVYLQMNSLRAEDTATYFCARDRHGGDSSGAFYLWGQGTLVTVSS
B5: PRO1853 (multispecific antibody)
chain: B4 chain with A91G, C160G, C355T, Y472A
B6: PRO1854 (multispecific antibody)
chain: B4 chain with A91G, Y472A

What was measured:
[1] = target: T2, Fc-tagged human PD-L1 extracellular domain (SinoBiological, cat. 10084-H02H) (human, UniProt Q9NZQ7 19-238); assay: SPR, alanine mutants of 33-03-G02
T2 construct: extracellular domain; also called hPD-L1; not shown: Fc tag of the bought protein

[2] = target: T2, Fc-tagged human PD-L1 extracellular …; assay: SPR, captured Fc-PD-L1 ECD, scFv analyte, kinetic
[3] = target: CD3e on Jurkat PD-1 NFAT reporter T cells or on T cells of human PBMCs (human, UniProt P07766 23-207); assay: cell-based or functional assay
[4] = target: T1, recombinant human IL-23R (custom-made …); assay: SPR, immobilised IL-23R
[5] = target: T3, recombinant human Her2 ECD (SinoBiological, cat. 10004-HCCH) (human, UniProt P04626 23-652); assay: SPR, immobilised Her2 ECD
T3 construct: extracellular domain; bought protein

human serum albumin = target: T4, human serum albumin (human, UniProt P02768 25-609); assay: SPR, immobilised HSA, pH 5.5
T4 construct: also called HSA; human SA

mouse serum albumin = target: T5, mouse serum albumin (mouse, UniProt P07724 25-608); assay: SPR, immobilised MSA, pH 5.5
T5 construct: also called MSA; mouse SA
T5 sequence (P07724 25-608 limits assumed): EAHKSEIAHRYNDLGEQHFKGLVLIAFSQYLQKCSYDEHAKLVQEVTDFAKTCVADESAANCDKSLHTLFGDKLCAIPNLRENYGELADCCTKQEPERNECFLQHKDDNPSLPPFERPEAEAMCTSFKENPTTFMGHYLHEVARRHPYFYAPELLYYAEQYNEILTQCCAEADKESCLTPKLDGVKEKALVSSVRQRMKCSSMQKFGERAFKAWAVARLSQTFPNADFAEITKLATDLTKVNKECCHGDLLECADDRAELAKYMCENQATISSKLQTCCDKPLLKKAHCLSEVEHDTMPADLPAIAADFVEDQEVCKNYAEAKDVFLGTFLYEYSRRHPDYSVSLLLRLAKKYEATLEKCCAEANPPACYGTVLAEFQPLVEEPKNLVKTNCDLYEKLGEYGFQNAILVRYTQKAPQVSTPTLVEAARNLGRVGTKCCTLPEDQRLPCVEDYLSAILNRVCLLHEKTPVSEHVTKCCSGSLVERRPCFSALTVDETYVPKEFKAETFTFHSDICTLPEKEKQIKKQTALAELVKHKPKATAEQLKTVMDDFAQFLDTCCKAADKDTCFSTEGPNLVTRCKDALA

[6] = target: T2, Fc-tagged human PD-L1 extracellular …; assay: SPR, captured Fc-PD-L1 ECD, kinetic
[7] = target: T2, Fc-tagged human PD-L1 extracellular …; assay: SPR, captured Fc-PD-L1 ECD, steady state
[8] = target: T6, recombinant human CD3E ECD (SinoBiological, cat. 10977-H08H) (human, UniProt P07766 23-126); assay: SPR, immobilised CD3e ECD, two-state model
T6 construct: extracellular domain; bought protein; also called CD3s
T6 sequence (P07766 23-126): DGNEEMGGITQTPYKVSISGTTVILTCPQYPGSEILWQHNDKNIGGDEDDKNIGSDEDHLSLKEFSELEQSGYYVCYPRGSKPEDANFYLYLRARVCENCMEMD

[9] = target: T6, recombinant human CD3E ECD …; assay: SPR, immobilised CD3e ECD, two-state model (ka1)
[10] = target: T6, recombinant human CD3E ECD …; assay: SPR, immobilised CD3e ECD, two-state model (kd1)
[11] = target: T7, human PD-L1 expressed on cells (CHO-PD-L1, HCC1954, HCC827) (human, UniProt Q9NZQ7 19-290); assay: flow cytometry, inhibition of biotinylated PD-1 binding to HCC827 cells
T7 construct: whole, on cells; also called hPD-L1; PD-L1 expressing cells

[12] = target: T7, human PD-L1 expressed on cells …; assay: flow cytometry, inhibition of biotinylated PD-1 binding to HCC1954 cells
[13] = target: T6, recombinant human CD3E ECD …; assay: SPR, immobilised CD3e ECD, two-state model; overall KD of the two-state fit
[14] = target: T6, recombinant human CD3E ECD …; assay: SPR, immobilised CD3e ECD, two-state model (ka1); ka1, first step of the two-state fit
[15] = target: T6, recombinant human CD3E ECD …; assay: SPR, immobilised CD3e ECD, two-state model (kd1); kd1, first step of the two-state fit
[16] = target: T7, human PD-L1 expressed on cells …; assay: flow cytometry with human SA, inhibition of PD-1 binding to HCC827 cells
[17] = target: T7, human PD-L1 expressed on cells …; assay: flow cytometry with human SA, inhibition of PD-1 binding to HCC1954 cells

Binder | IC50, NFAT reporter, CHO-PD-L1 (A2 clone) cells [3] [µM] | IC50, NFAT reporter, HCC1954 cells [3] [µM] | rel. max. activation vs PRO1497, NFAT reporter, HCC1954 cells [3] [%] | rel. max. activation vs PRO1497 on HCC1954, NFAT reporter, CHO-PD-L1 (A2 clone) cells [3] [%] | Kd (human serum albumin) [µM] | koff (human serum albumin) [s⁻¹] | kon (human serum albumin) [M⁻¹ s⁻¹] | Kd (mouse serum albumin) [µM] | koff (mouse serum albumin) [s⁻¹] | kon (mouse serum albumin) [M⁻¹ s⁻¹] | Kd [6] [µM] | koff [6] [s⁻¹] | kon [6] [M⁻¹ s⁻¹] | Kd [7] [µM] | KD1 [8] [nM] | kd2 [8] [s⁻¹] | IC50 [11] [mg/L] | IC50 [12] [mg/L] | IC50 [16] [mg/L] | IC50 [17] [mg/L] | further results
B1 |  |  |  |  |  |  |  |  |  |  |  |  |  |  |  |  |  |  |  |  | fold reduction of affinity vs the original domain [1]: > 100 fold; Kd [2]: 0.00752 µM; koff [2]: 0.0135 s⁻¹; kon [2]: 1.8e+06 M⁻¹ s⁻¹
B2 | 0.0105 | 0.00229 | 78 | 42 | 0.00087 | 0.000121 | 139000 | 0.0195 | 0.00112 | 57500 | 0.284 | 0.00117 | 4120 | 0.809 | 23.2 | 0.0042 | 46 | 0.528 |  |  | binding result [4]: no binding (tested: 90 nM highest concentration); Kd [5]: 0.000354 µM; koff [5]: 5.56e-05 s⁻¹; kon [5]: 157000 M⁻¹ s⁻¹; Kd [8]: 0.0127 µM; kon [9]: 222000 M⁻¹ s⁻¹; koff [10]: 0.00516 s⁻¹
B3 | 0.026 | 0.0122 | 67 | 59 | 0.000693 | 0.000119 | 171000 | 0.0159 | 0.00108 | 67900 | 1.13 | 0.0022 | 1950 | 0.879 | 38.2 | 0.00432 | 88.1 | 4.14 |  |  | Kd [4]: 0.00152 µM; koff [4]: 0.000471 s⁻¹; kon [4]: 309000 M⁻¹ s⁻¹; binding result [5]: no binding (tested: 90 nM highest concentration); Kd [13]: 0.0167 µM; kon [14]: 169000 M⁻¹ s⁻¹; koff [15]: 0.00645 s⁻¹
B4 |  |  |  |  |  |  |  |  |  |  |  |  |  |  |  |  |  |  | 16.8 | 0.0556 | 
B5 |  |  |  |  |  |  |  |  |  |  |  |  |  |  |  |  |  |  | 88.2 | 0.0695 | 
B6 |  |  |  |  |  |  |  |  |  |  |  |  |  |  |  |  |  |  | 53.5 | 0.0561 | 
